Where two headings read alike, the source gives them in different places. Square brackets hold non-standard residues; d marks the D form. Ends that are not written are not given here. Cit = NC(=O)NCCC[C@H](N)C(=O)O

Here are results for 28 molecules from patent publication US20200407424A1 (FRAUNHOFER GESELLSCHAFT ZUR F RDERUNG DER ANGEWANDTEN …, published 2020).

What all share (experiment): in vitro binding assay
Test [1] has as its target T1, recombinant MHC class II protein of the HLA DRB1 0401 genotype (human).
T1 construct: construct not described; also called HLA-DR0401

The target in test [2] is T2, recombinant MHC class II protein of the HLA DRB1 0405 genotype (human).
T2 construct: construct not described

In test [3] the target is T3, recombinant MHC class II protein of the HLA DRB1 0408 genotype (human).
T3 construct: construct not described

Test [4] addresses T4, recombinant MHC class II protein of the HLA DRB1 0101 genotype (human).
T4 construct: construct not described

Test [5] has as its target T5, recombinant MHC class II protein of the HLA DRB1 0404 genotype (human).
T5 construct: construct not described

Test [6] concerns the target T6, recombinant MHC class II protein of the HLA DRB1 1001 genotype (human).
T6 construct: construct not described

The target in test [7] is T1, recombinant MHC class II protein of the …. The source holds these as a separate data set.
Test [8] has as its target T2, recombinant MHC class II protein of the …. This is another data set of the same source.
For test [9], the target named is T4, recombinant MHC class II protein of the …. The source holds these as a separate data set.
Test [10] deals with T5, recombinant MHC class II protein of the …. This is another data set of the same source.
Test [11] deals with T1, recombinant MHC class II protein of the …. The source holds these as a separate data set.

B1: a-enolase peptide ref no 38 (peptide)
peptide: AEVYHNLKNVIKEKY
As for B1, the binding result in [1] is “binds”; in test [2], “binds”; in [3], “binds”; in test [4], “binds”; in test [5], “no binding”; in test [6], “no binding”.

B2: a-enolase peptide ref no 15 (peptide)
peptide: KTIAPALVSKKLNVT
B2: the binding result was “no binding” in [1]; “no binding” in test [2]; “binds” in test [3]; “binds” in [4]; “binds” in test [5]; “no binding” in test [6].

B3: vimentin peptide ref no 3 (peptide)
peptide: YRRMFGGPGTASRPS
On to B3, for which the binding result in [7], in [8], in test [9] and in test [10] was “binds” each time.

B4: a-enolase peptide ref no 80 (peptide)
peptide: GAPCRSERLAKYNQL
B4: the binding result in test [1] is “no binding”; in [2] it was “binds”; in test [3], “binds”; in test [4], “binds”; in [5], “no binding”; in [6], “no binding”.

B5: a-enolase peptide ref no 81 (peptide)
peptide: SERLAKYNQLLRIEE
On to B5, for which the binding result in test [1] is on record as “no binding”; in [2] it was “no binding”; in [3], “no binding”; in [4], “binds”; in test [5] it was “binds”; in [6], “no binding”.

B6: citrullinated vimentin peptide ref no 166 (peptide)
peptide: THSK[Cit]TLLIKTVET[Cit]
For the molecule B6, the binding result is on record as “no binding” in test [7], “no binding” in [8], “no binding” in test [9] and “binds” in test [10].

B7: a-enolase peptide ref no 26 (peptide)
peptide: KGVPLYRHIADLAGN
In the case of B7, the binding result in [1] is “binds”; in [2] it was “binds”; in test [3], “binds”; in test [4], “binds”; in test [5] it was “binds”; in test [6], “no binding”.

B8: vimentin peptide ref no 34 (peptide)
peptide: NDKARVEVERDNLAE
On to B8, for which the binding result in test [7] is recorded as “binds”; in test [8], “no binding”; in test [9] it was “no binding”.

B9: citrullinated vimentin peptide ref no 105 (peptide)
peptide: YAT[Cit]SSAV[Cit]L[Cit]SSVP
B9: the binding result in [7] is “binds”; in test [8] it was “no binding”; in [9] it was “binds”; in [10], “no binding”.

B10: a-enolase peptide ref no 14 (peptide)
peptide: VEHINKTIAPALVSK
Take B10: the binding result in test [1] is “no binding”; in [2] it was “no binding”; in test [3], “binds”; in [4] it was “binds”; in [5], “binds”; in test [6], “no binding”.

B11: a-enolase peptide ref no 13 (peptide)
peptide: GVSKAVEHINKTIAP
For the molecule B11, the binding result in [1] is given as “no binding”; in [2], “no binding”; in test [3], “no binding”; in test [4], “binds”; in [5], “binds”; in test [6] it was “no binding”.

B12: citrullinated a-enolase peptide ref no 324 (peptide)
peptide: KAKFAG[Cit]NF[Cit]NPLAK
As for B12, the binding result is listed as “binds” in [11]; “binds” in test [2]; “no binding” in test [3]; “no binding” in test [4]; “binds” in test [5]; “no binding” in test [6].

B13: vimentin peptide ref no 77 (peptide)
peptide: REYQDLLNVKMALDI
For the molecule B13, the binding result in test [8] and in test [9] was “binds” each time.

B14: a-enolase peptide ref no 12 (peptide)
peptide: RYMGKGVSKAVEHIN
With B14, the binding result in test [1] is “no binding”; in test [2], “binds”; in test [3] it was “binds”; in test [4] it was “binds”; in test [5], “no binding”; in test [6], “binds”.

B15: vimentin peptide ref no 81 (peptide)
peptide: RKLLEGEESRISLPL
Regarding B15, the binding result in [7] is given as “binds”; in test [8] it was “no binding”; in test [9], “no binding”; in test [10] it was “no binding”.

B16: a-enolase peptide ref no 57 (peptide)
peptide: KSFIKDYPVVSIEDP
For the molecule B16, the binding result in [1], in [2], in test [3], in [4], in test [5] and in test [6] was “binds” each time.

B17: vimentin peptide ref no 41 (peptide)
peptide: NTLQSFRQDVDNASL
For B17, the binding result in test [7], in [8] and in test [10] was “binds” throughout.

B18: citrullinated vimentin peptide ref no 108 (peptide)
peptide: GVXLLQDSVDFSLAD
modifications: citrulline (Xaa) at 3
In the case of B18, the binding result in [7] is listed as “binds”; in [8], “no binding”; in test [9] it was “no binding”; in [10], “no binding”.

B19: citrullinated vimentin peptide ref no 117 (peptide)
peptide: LLAELEQLKGQGKS[Cit]
In the case of B19, the binding result in test [8] is “no binding”; in [9], “binds”; in test [10], “no binding”.

B20: citrullinated vimentin peptide ref no 106 (peptide)
peptide: SAV[Cit]L[Cit]SSVPGV[Cit]LL
Regarding B20, the binding result in test [7], in test [8], in test [9] and in test [10] was “binds” each time.

B21: citrullinated vimentin peptide ref no 111 (peptide)
peptide: FKNT[Cit]TNEKVELQEL
For the molecule B21, the binding result is “binds” in test [7], “no binding” in [8], “binds” in test [9] and “no binding” in test [10].

B22: citrullinated vimentin peptide ref no 98 (peptide)
peptide: SS[Cit]SYVTTST[Cit]TYSL
B22: the binding result in test [7] and in [8] was “binds” throughout.

B23: vimentin peptide ref no 33 (peptide)
peptide: VDQLTNDKARVEVER
With B23, the binding result in test [7] is given as “binds”; in test [8] it was “no binding”; in [9], “no binding”; in test [10], “binds”.

B24: a-enolase peptide ref no 1 (peptide)
peptide: MSILKIHAREIFDSR
As for B24, the binding result in test [1] is recorded as “no binding”; in test [2], “binds”; in [3] it was “no binding”; in test [4], “binds”; in test [5], “binds”; in [6] it was “binds”.

B25: citrullinated vimentin peptide ref no 133 (peptide)
peptide: DNASLA[Cit]LDLE[Cit]KVE
For B25, the binding result is listed as “binds” in test [7], “no binding” in test [8], “no binding” in test [9] and “no binding” in [10].

B26: vimentin peptide ref no 64 (peptide)
peptide: STEYRRQVQSLTCEV
Regarding B26, the binding result in test [7], in test [8] and in test [9] was “binds” throughout.

B27: vimentin peptide ref no 1 (peptide)
peptide: MSTRSVSSSSYRRMF
Take B27: the binding result in test [7] is given as “binds”; in test [8] it was “no binding”; in test [9], “binds”; in [10] it was “binds”.

B28: citrullinated vimentin peptide ref no 104 (peptide)
peptide: SPGGVYAT[Cit]SSAV[Cit]L
Regarding B28, the binding result is reported as “binds” in [7], “no binding” in [8], “binds” in test [9] and “binds” in [10].
